Where “and” joins values, the source holds several entries; their conditions need not be identical. Equal entries are not always repeated. Bridges are numbered along the chain shown (N, C = ends). [ ]: non-standard residue; d: D form. The star is where a group is joined. N3 = N-terminal azide group, clicked with Pra; NMeW = CN[C@@H](Cc1c[nH]c2ccccc12)C(=O)O; Stearoyl = CCCCCCCCCCCCCCCCCC(=O)*; αMeV = CC(C)[C@](C)(N)C(=O)O; αMeS = C[C@](N)(CO)C(=O)O; Pra = C#CC[C@H](N)C(=O)O; GABA = NCCCC(=O)O; βAla = NCCC(=O)O; Sar = CNCC(=O)O
T1: β-catenin (UniProt P35222 134-665, limits assumed, biotinylated in the SPR and plate assays)
T1 sequence (looked up): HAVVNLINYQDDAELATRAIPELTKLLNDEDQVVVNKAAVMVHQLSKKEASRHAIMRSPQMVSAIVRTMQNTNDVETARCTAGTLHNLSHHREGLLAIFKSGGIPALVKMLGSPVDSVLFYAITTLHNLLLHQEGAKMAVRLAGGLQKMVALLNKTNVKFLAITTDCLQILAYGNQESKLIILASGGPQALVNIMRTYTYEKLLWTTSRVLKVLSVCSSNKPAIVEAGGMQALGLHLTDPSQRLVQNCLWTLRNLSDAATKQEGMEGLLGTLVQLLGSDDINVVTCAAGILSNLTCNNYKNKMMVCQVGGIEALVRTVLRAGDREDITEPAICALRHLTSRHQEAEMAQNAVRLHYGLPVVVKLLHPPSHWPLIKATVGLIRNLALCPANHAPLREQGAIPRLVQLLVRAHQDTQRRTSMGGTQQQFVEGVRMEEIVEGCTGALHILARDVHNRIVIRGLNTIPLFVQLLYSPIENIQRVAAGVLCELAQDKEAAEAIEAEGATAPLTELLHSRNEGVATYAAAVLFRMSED


Target: T1, β-catenin
Assay: cell-based or functional assay

Binder	Wnt Reporter EC50	Proliferation IC50, Wnt dependent cells [µM]
KMWFLICEWG (HELM PEPTIDE1{K.M.W.F.L.I.C.E.W.G}$PEPTIDE1,PEPTIDE1,1:R3-8:R3$$$V2.0; SMILES CC[C@H](C)[C@@H]1NC(=O)[C@H](CC(C)C)NC(=O)[C@H](Cc2ccccc2)NC(=O)[C@H](Cc2c[nH]c3ccccc23)NC(=O)[C@H](CCSC)NC(=O)[C@@H](N)CCCCNC(=O)CC[C@@H](C(=O)N[C@@H](Cc2c[nH]c3ccccc23)C(=O)NCC(=O)O)NC(=O)[C@H](CS)NC1=O) [SEQ ID NO: 180]	≤ 7.5 µM	–
DMWFLICFWKG (HELM PEPTIDE1{D.M.W.F.L.I.C.F.W.K.G}$PEPTIDE1,PEPTIDE1,1:R3-10:R3$$$V2.0; SMILES CC[C@H](C)[C@@H]1NC(=O)[C@H](CC(C)C)NC(=O)[C@H](Cc2ccccc2)NC(=O)[C@H](Cc2c[nH]c3ccccc23)NC(=O)[C@H](CCSC)NC(=O)[C@@H](N)CC(=O)NCCCC[C@@H](C(=O)NCC(=O)O)NC(=O)[C@H](Cc2c[nH]c3ccccc23)NC(=O)[C@H](Cc2ccccc2)NC(=O)[C@H](CS)NC1=O) [SEQ ID NO: 177]	> 7.5 µM and ≤ 15 µM	–
KWFLICEWG (HELM PEPTIDE1{K.W.F.L.I.C.E.W.G}$PEPTIDE1,PEPTIDE1,1:R3-7:R3$$$V2.0; SMILES CC[C@H](C)[C@@H]1NC(=O)[C@H](CC(C)C)NC(=O)[C@H](Cc2ccccc2)NC(=O)[C@H](Cc2c[nH]c3ccccc23)NC(=O)[C@@H](N)CCCCNC(=O)CC[C@@H](C(=O)N[C@@H](Cc2c[nH]c3ccccc23)C(=O)NCC(=O)O)NC(=O)[C@H](CS)NC1=O) [SEQ ID NO: 173]	> 30 µM	–
N3-WESILDEHVQRVW[Pra]-NH2 (triazole N-14) [SEQ ID NO: 33]	> 30 µM	–
KWFLICFWEG (cyclo-H2N-K(G*)WFLICFWE*G-COOH) [SEQ ID NO: 174]	> 7.5 µM and ≤ 15 µM	–
KWFLIAFWE (HELM PEPTIDE1{K.W.F.L.I.A.F.W.E}$PEPTIDE1,PEPTIDE1,1:R3-9:R3$$$V2.0; SMILES CC[C@H](C)[C@@H]1NC(=O)[C@H](CC(C)C)NC(=O)[C@H](Cc2ccccc2)NC(=O)[C@H](Cc2c[nH]c3ccccc23)NC(=O)[C@@H](N)CCCCNC(=O)CC[C@@H](C(=O)O)NC(=O)[C@H](Cc2c[nH]c3ccccc23)NC(=O)[C@H](Cc2ccccc2)NC(=O)[C@H](C)NC1=O) [SEQ ID NO: 201]	> 22.5 µM and ≤ 30 µM	–
DWFLICAWKG (HELM PEPTIDE1{D.W.F.L.I.C.A.W.K.G}$PEPTIDE1,PEPTIDE1,1:R3-9:R3$$$V2.0; SMILES CC[C@H](C)[C@@H]1NC(=O)[C@H](CC(C)C)NC(=O)[C@H](Cc2ccccc2)NC(=O)[C@H](Cc2c[nH]c3ccccc23)NC(=O)[C@@H](N)CC(=O)NCCCC[C@@H](C(=O)NCC(=O)O)NC(=O)[C@H](Cc2c[nH]c3ccccc23)NC(=O)[C@H](C)NC(=O)[C@H](CS)NC1=O) [SEQ ID NO: 178]	≤ 7.5 µM	–
KMSRMWYLISFW (HELM PEPTIDE1{K.M.S.R.M.W.Y.L.I.S.F.W}$PEPTIDE1,PEPTIDE1,1:R3-12:R2$$$V2.0; SMILES CC[C@H](C)[C@@H]1NC(=O)[C@H](CC(C)C)NC(=O)[C@H](Cc2ccc(O)cc2)NC(=O)[C@H](Cc2c[nH]c3ccccc23)NC(=O)[C@H](CCSC)NC(=O)[C@H](CCCNC(=N)N)NC(=O)[C@H](CO)NC(=O)[C@H](CCSC)NC(=O)[C@@H](N)CCCCNC(=O)[C@H](Cc2c[nH]c3ccccc23)NC(=O)[C@H](Cc2ccccc2)NC(=O)[C@H](CO)NC1=O) [SEQ ID NO: 31]	> 30 µM	–
H-[2Aoc]WFLICFWG-OH [SEQ ID NO: 139]	> 30 µM	–
H-MIRMWFLICAWG-OH [SEQ ID NO: 166]	> 30 µM	–
KWFLICEWG (HELM PEPTIDE1{K.W.F.L.I.C.E.W.G}$PEPTIDE1,PEPTIDE1,1:R3-7:R3$$$V2.0; SMILES CC[C@H](C)[C@@H]1NC(=O)[C@H](CC(C)C)NC(=O)[C@H](Cc2ccccc2)NC(=O)[C@H](Cc2c[nH]c3ccccc23)NC(=O)[C@@H](N)CCCCNC(=O)CC[C@@H](C(=O)N[C@@H](Cc2c[nH]c3ccccc23)C(=O)NCC(=O)O)NC(=O)[C@H](CS)NC1=O) [SEQ ID NO: 181]	> 30 µM	–

Now from value to binder:

Wnt Reporter EC50	Proliferation IC50, Wnt dependent cells [µM]	Binder
> 7.5 µM and ≤ 15 µM	–	KWFEISFWG (HELM PEPTIDE1{K.W.F.E.I.S.F.W.G}$PEPTIDE1,PEPTIDE1,1:R3-4:R3$$$V2.0; SMILES CC[C@H](C)[C@H](NC(=O)[C@@H]1CCC(=O)NCCCC[C@H](N)C(=O)N[C@@H](Cc2c[nH]c3ccccc23)C(=O)N[C@@H](Cc2ccccc2)C(=O)N1)C(=O)N[C@@H](CO)C(=O)N[C@@H](Cc1ccccc1)C(=O)N[C@@H](Cc1c[nH]c2ccccc12)C(=O)NCC(=O)O) [SEQ ID NO: 208]
> 30 µM	–	KWXLISAWD (HELM PEPTIDE1{K.W.[CC(C)(C)[C@H](N[*:1])C(=O)[*:2]].L.I.S.A.W.D}$PEPTIDE1,PEPTIDE1,1:R3-9:R3$$$V2.0; SMILES CC[C@H](C)[C@@H]1NC(=O)[C@H](CC(C)C)NC(=O)[C@H](C(C)(C)C)NC(=O)[C@H](Cc2c[nH]c3ccccc23)NC(=O)[C@@H](N)CCCCNC(=O)C[C@@H](C(=O)O)NC(=O)[C@H](Cc2c[nH]c3ccccc23)NC(=O)[C@H](C)NC(=O)[C@H](CO)NC1=O) [SEQ ID NO: 205]
≤ 7.5 µM	4.8	Stearoyl-[βAla]W[NMeW]E[αMeS]ILDEH[αMeV]QRVWG-OH (SMILES CCCCCCCCCCCCCCCCCC(=O)NCCC(=O)N[C@@H](Cc1c[nH]c2ccccc12)C(=O)N(C)[C@@H](Cc1c[nH]c2ccccc12)C(=O)N[C@@H](CCC(=O)O)C(=O)N[C@@](C)(CO)C(=O)N[C@H](C(=O)N[C@@H](CC(C)C)C(=O)N[C@@H](CC(=O)O)C(=O)N[C@@H](CCC(=O)O)C(=O)N[C@@H](Cc1c[nH]cn1)C(=O)N[C@](C)(C(=O)N[C@@H](CCC(N)=O)C(=O)N[C@@H](CCCNC(=N)N)C(=O)N[C@H](C(=O)N[C@@H](Cc1c[nH]c2ccccc12)C(=O)NCC(=O)O)C(C)C)C(C)C)[C@@H](C)CC) [SEQ ID NO: 391]
> 7.5 µM and ≤ 15 µM	4.7	Stearoyl-W[NMeW]E[αMeS]ILDEH[αMeV]QRVWG-OH [SEQ ID NO: 390]
≤ 7.5 µM	–	H-MWFLICAWG-OH [SEQ ID NO: 211]
> 22.5 µM and ≤ 30 µM	–	KWFLISAWD (HELM PEPTIDE1{K.W.F.L.I.S.A.W.D}$PEPTIDE1,PEPTIDE1,1:R3-9:R3$$$V2.0; SMILES CC[C@H](C)[C@@H]1NC(=O)[C@H](CC(C)C)NC(=O)[C@H](Cc2ccccc2)NC(=O)[C@H](Cc2c[nH]c3ccccc23)NC(=O)[C@@H](N)CCCCNC(=O)C[C@@H](C(=O)O)NC(=O)[C@H](Cc2c[nH]c3ccccc23)NC(=O)[C@H](C)NC(=O)[C@H](CO)NC1=O) [SEQ ID NO: 202]
> 7.5 µM and ≤ 15 µM	–	Ac-MWILISFWG-OMe [SEQ ID NO: 222]
≤ 7.5 µM	–	H-MWFLICFW[Sar]-OH [SEQ ID NO: 213]
> 15 µM and ≤ 22.5 µM	–	KWLLISAWD (HELM PEPTIDE1{K.W.L.L.I.S.A.W.D}$PEPTIDE1,PEPTIDE1,1:R3-9:R3$$$V2.0; SMILES CC[C@H](C)[C@@H]1NC(=O)[C@H](CC(C)C)NC(=O)[C@H](CC(C)C)NC(=O)[C@H](Cc2c[nH]c3ccccc23)NC(=O)[C@@H](N)CCCCNC(=O)C[C@@H](C(=O)O)NC(=O)[C@H](Cc2c[nH]c3ccccc23)NC(=O)[C@H](C)NC(=O)[C@H](CO)NC1=O) [SEQ ID NO: 206]
> 7.5 µM and ≤ 15 µM	–	KWALISAWD (HELM PEPTIDE1{K.W.[Cha].L.I.S.A.W.D}$PEPTIDE1,PEPTIDE1,1:R3-9:R3$$$V2.0; SMILES CC[C@H](C)[C@@H]1NC(=O)[C@H](CC(C)C)NC(=O)[C@H](CC2CCCCC2)NC(=O)[C@H](Cc2c[nH]c3ccccc23)NC(=O)[C@@H](N)CCCCNC(=O)C[C@@H](C(=O)O)NC(=O)[C@H](Cc2c[nH]c3ccccc23)NC(=O)[C@H](C)NC(=O)[C@H](CO)NC1=O) [SEQ ID NO: 203]
≤ 7.5 µM	–	H-MAFLISFWG-OH [SEQ ID NO: 210]
≤ 7.5 µM	–	{Stearoyl-GABA}-W[NMeW]E[αMeS]ILDEH[αMeV]QRVWG-OH [SEQ ID NO: 392]

From patent publication US20260098059A1 (ENDOMET BIOSCIENCES, published 2026)
